The data set concerns the target T1, Tma endonuclease V H116A H116A (Thermotoga maritima) (UniProt Q9X2H9).
T1 sequence: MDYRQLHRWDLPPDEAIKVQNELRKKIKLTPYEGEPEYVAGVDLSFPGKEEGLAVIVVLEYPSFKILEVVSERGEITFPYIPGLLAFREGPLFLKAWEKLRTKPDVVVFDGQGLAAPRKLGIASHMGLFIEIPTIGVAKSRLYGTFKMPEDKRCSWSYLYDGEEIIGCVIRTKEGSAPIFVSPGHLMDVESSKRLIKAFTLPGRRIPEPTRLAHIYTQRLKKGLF
Put plainly: EMSA. The following applies: deoxyinosine; MgCl2; bound about half as tightly as wt. A general note: In EMSA bound probe runs differently from free probe, usually more slowly.

Regarding nicked I/A product, the binding signal was 0.5 fold of wt.

For the origin of these results see US20030148283.
